Experimental data reported in patent publication US7078511B1.

Key:
[1] = biological target: Drosophila melanogaster scavenger receptor type CI (Drosophila melanogaster)
[2] = biological target: hamster scavenger receptor type BI (hamster); assay: ^125I-AcLDL (5 µg/ml) binding at 4° C. to ldlA[haSR-BI] cells, no competitor

| ^125I-AcLDL Degradation (% No Competitor) (% No Competitor) [1] | 125I-AcLDL binding (ng/mg cell protein) [2] | Substance |
| --- | --- | --- |
| 97.6 | – | low density lipoprotein |
| 4.8 | 293 | acetylated low density lipoprotein |
| 34 | – | Poly D-glutamic acid (peptide) |
